Here are results for one molecule from paper PMC11910882.

For this series, the target named is SlNSP2-GST (Solanum lycopersicum (tomato), UniProt A0A3Q7ITG8 1-487). In words: EMSA. In general terms: Mobility shift assays separate free from complexed probe on a gel.

B1: pSlABCG44-WT (dsDNA)
DNA 1: GAGTGAATTTGTTTGGTTCAATTTTGTCC
DNA 2: GGACAAAATTGAACCAAACAAATTCACTC
Turning to B1, the binding result is listed as “no binding”.
